In the supplement of paper PMC12855868:

B1: library; numbered along this chain (parent)
chain: MAAAGGARLLRAASAVLGGPAGRWLHHAGSRAGSSGLLRNRGPGGSAEASRSLSVSARARSSSEDKITVHFINRDGETLTTKGKVGDSLLDVVVENNLDIDGFGACEGTLACSTCHLIFEDHIYEKLDAITDEENDMLDLAYGLTDRSRLGCQICLTKSMDNMTVRVPETVADARQSIDVGKTS

Variants of: B1
Assay: scaled log2 fold change in cell abundance, elesclomol vs control (0 = silent mean, 1 = nonsense mean) (scaled log2 ratio); higher = higher viability under elesclomol (loss of FDX1 cuproptosis function)
Conditions: glucose 10 mM
Procedure: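 Deep mutational scan of full-length human FDX1: a pooled saturation-mutagenesis ORF library (every residue 2-184 mutated to all 19 amino acids plus stop, and silent codons where available) was expressed by lentivirus in FDX1-knockout ABC1 (14 days) or HEK293T (11 days) cells grown with elesclomol (ES) or DMSO control. Variant abundance came from ORF sequencing. The log2 fold change (ES vs control, mean of duplicates) was centred on the silent-variant mean (0) and scaled to the nonsense-variant mean (1). Higher values mean greater viability under ES, i.e. loss of FDX1 function in cuproptosis.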

[1] = with ABC1 FDX1 KO, elesclomol 5 nM, 14 days
[2] = with HEK293T FDX1 KO, elesclomol 40 nM, 11 days
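Also: variant abundance is its share of total variant reads in each endpoint sample, from next-generation sequencing of the integrated ORF PCR-amplified out of genomic DNA.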

Variant: I154C
- scaled log2 fold change [1]: -0.101
- scaled log2 fold change [2]: 0.0571

Variant: H26W
- scaled log2 fold change [1]: 0.101
- scaled log2 fold change [2]: -0.281

Variant: H26L
- scaled log2 fold change [1]: 0.346
- scaled log2 fold change [2]: 0.304

Variant: A172C
- scaled log2 fold change [1]: -0.253
- scaled log2 fold change [2]: -0.168

Variant: S52K
- scaled log2 fold change [1]: 0.174
- scaled log2 fold change [2]: -1.31

Variant: D128G
- scaled log2 fold change [1]: 0.0426

Variant: R23E
- scaled log2 fold change [1]: 0.00775

Variant: D161Y
- scaled log2 fold change [1]: 0.284
- scaled log2 fold change [2]: 0.145

Variant: D161C
- scaled log2 fold change [1]: 0.35
- scaled log2 fold change [2]: 0.607

Variant: K84L
- scaled log2 fold change [1]: 0.349
- scaled log2 fold change [2]: -0.439

Variant: R147T
- scaled log2 fold change [1]: -0.344
- scaled log2 fold change [2]: -0.0355

Variant: R147A
- scaled log2 fold change [1]: 0.283

Variant: R147L
- scaled log2 fold change [1]: -1.37
- scaled log2 fold change [2]: -0.851

Variant: L38W
- scaled log2 fold change [1]: -0.0179

Variant: S61I
- scaled log2 fold change [1]: -0.527

Variant: S14F
- scaled log2 fold change [1]: -0.657

Variant: S14I
- scaled log2 fold change [1]: -0.891
- scaled log2 fold change [2]: -0.397

Variant: T81Q
- scaled log2 fold change [1]: -0.159
- scaled log2 fold change [2]: -0.00467

Variant: T81V
- scaled log2 fold change [1]: 0.0264
- scaled log2 fold change [2]: -0.0523

Variant: G18Y
- scaled log2 fold change [1]: 0.0736
- scaled log2 fold change [2]: 0.324

Variant: G19F
- scaled log2 fold change [1]: 0.0719
- scaled log2 fold change [2]: 0.185

Variant: T157G
- scaled log2 fold change [1]: -0.366
- scaled log2 fold change [2]: 0.895

Variant: D101M
- scaled log2 fold change [1]: 0.241
- scaled log2 fold change [2]: 0.684

Variant: T164H
- scaled log2 fold change [1]: 0.213
- scaled log2 fold change [2]: -0.0955

Variant: A47R
- scaled log2 fold change [1]: 0.994
- scaled log2 fold change [2]: 1.12

Variant: A47Y
- scaled log2 fold change [1]: 0.8
- scaled log2 fold change [2]: 0.534

Variant: D75S
- scaled log2 fold change [1]: -0.0315

Variant: I118M
- scaled log2 fold change [1]: 0.0783
- scaled log2 fold change [2]: 0.694

Variant: G86C
- scaled log2 fold change [1]: 0.175
- scaled log2 fold change [2]: 1.4

Variant: E64K
- scaled log2 fold change [1]: 0.278
- scaled log2 fold change [2]: -0.162

Variant: E77L
- scaled log2 fold change [1]: 0.262
- scaled log2 fold change [2]: 0.144

Variant: E77H
- scaled log2 fold change [1]: -0.0496
- scaled log2 fold change [2]: -0.0091

Variant: E77M
- scaled log2 fold change [1]: -0.575
- scaled log2 fold change [2]: -0.139

Variant: I67D
- scaled log2 fold change [1]: 1.08
- scaled log2 fold change [2]: 1.13

Variant: Q153V
- scaled log2 fold change [1]: -0.0289
- scaled log2 fold change [2]: 0.299

Variant: R60C
- scaled log2 fold change [1]: 0.327
- scaled log2 fold change [2]: -0.517

Variant: A105N
- scaled log2 fold change [1]: -0.246
- scaled log2 fold change [2]: 0.204

Variant: A105R
- scaled log2 fold change [1]: 0.523
- scaled log2 fold change [2]: -0.155

Variant: T170S
- scaled log2 fold change [1]: -0.088
- scaled log2 fold change [2]: -0.432

Variant: G42V
- scaled log2 fold change [1]: 0.365
- scaled log2 fold change [2]: -0.32

Variant: C115K
- scaled log2 fold change [1]: 1.02
- scaled log2 fold change [2]: 0.763

Variant: V85L
- scaled log2 fold change [1]: -0.101
- scaled log2 fold change [2]: 0.47

Variant: N96P
- scaled log2 fold change [1]: 0.423
- scaled log2 fold change [2]: -0.187

Variant: A174E
- scaled log2 fold change [1]: -0.219
- scaled log2 fold change [2]: 0.0347

Variant: F71T
- scaled log2 fold change [1]: 0.523
- scaled log2 fold change [2]: 0.991

Variant: A141N
- scaled log2 fold change [1]: -0.0904
- scaled log2 fold change [2]: 0.596

Variant: P20F
- scaled log2 fold change [1]: -0.201

Variant: S113G
- scaled log2 fold change [1]: 0.021
- scaled log2 fold change [2]: 0.00491

Variant: D87S
- scaled log2 fold change [1]: -0.493

Variant: G181P
- scaled log2 fold change [1]: -0.164
- scaled log2 fold change [2]: -0.548

Variant: G22Y
- scaled log2 fold change [1]: 0.703
- scaled log2 fold change [2]: 0.208

Variant: L25H
- scaled log2 fold change [1]: 0.124
- scaled log2 fold change [2]: -0.423

Variant: L25D
- scaled log2 fold change [1]: -0.703

Variant: L25S
- scaled log2 fold change [1]: 0.221

Variant: L110W
- scaled log2 fold change [1]: 0.568
- scaled log2 fold change [2]: 0.351

Variant: L110I
- scaled log2 fold change [1]: -0.0941
- scaled log2 fold change [2]: -0.421

Variant: E133P
- scaled log2 fold change [1]: -0.087
- scaled log2 fold change [2]: 0.243

Variant: E133H
- scaled log2 fold change [1]: -0.148
- scaled log2 fold change [2]: -0.764

Variant: V69H
- scaled log2 fold change [1]: 1.16
- scaled log2 fold change [2]: 1.1

Variant: L17H
- scaled log2 fold change [1]: -0.27
- scaled log2 fold change [2]: -0.167

Variant: H116D
- scaled log2 fold change [1]: 0.16
- scaled log2 fold change [2]: -0.115

Variant: H116I
- scaled log2 fold change [1]: -1.23
- scaled log2 fold change [2]: 0.162
